In US20260250318A1, “COMPOSITIONS AND METHODS FOR CROSSING THE BLOOD BRAIN BARRIER” (VOYAGER THERAPEUTICS, INC., priority 2022, published 2026):

Assays:
[1] = system: brains and tissues (liver quadriceps, and heart); experiment: NGS fold enrichment of capsid variants in marmosets; type: in vivo, marmosets (Callithrix jacchus); conditions: 2E13 vg/kg IV, 28 days
Description: (§1) To investigate tropism in marmoset monkeys, AAV particles comprising the TTM-001 capsid variant, the TTM-002 capsid variant, an AAV9 capsid variant comprising SEQ ID NO: 966, or an AAV9 control, were intravenously injected into NHPs (n=2, >10 months of age) at a dose of 2E13 vg/kg (8.75E12 vg/mL). After 28-days in life, the brains and tissues (liver quadriceps, and heart) of the NHPs were collected and RNA was extracted. Following RNA recovery and RT-PCR amplification, a systematic NGS enrichment analysis was performed to calculate the fold enrichment ratio relative to the AAV9 wild-type control.

[2] = target: T1, isoform 3 (alkaline phosphatase, intestinal (ALPLI)) (Homo sapiens, UniProt P09923); experiment: Transduction assay in HEK 293T cells expressing isoform 3; type: cell-based; conditions: for Luciferase Activity (RLU): Table 30, Isoform 3 transfected cells; for increase in transduction in cells expressing isoform 3: luciferase activity (RLU)
T1 construct: expressed in transfected cells; host or cells: HEK 293T
T1 sequence (P09923 20-503): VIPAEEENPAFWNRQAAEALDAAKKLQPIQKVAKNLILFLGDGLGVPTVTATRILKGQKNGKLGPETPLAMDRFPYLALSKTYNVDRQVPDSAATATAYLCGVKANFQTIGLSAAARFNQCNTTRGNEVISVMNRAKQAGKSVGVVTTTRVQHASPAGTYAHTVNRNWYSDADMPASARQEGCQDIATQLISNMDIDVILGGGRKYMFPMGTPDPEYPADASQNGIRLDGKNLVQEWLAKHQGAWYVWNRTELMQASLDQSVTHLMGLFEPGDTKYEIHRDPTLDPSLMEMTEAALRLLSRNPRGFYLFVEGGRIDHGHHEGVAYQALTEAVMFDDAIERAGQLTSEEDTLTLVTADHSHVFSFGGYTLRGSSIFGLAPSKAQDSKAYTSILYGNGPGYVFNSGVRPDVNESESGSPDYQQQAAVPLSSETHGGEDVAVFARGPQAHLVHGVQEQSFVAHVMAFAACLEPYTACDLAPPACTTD
Description: (§2) Three isoforms of ALPL exist, isoform 1 (Alkaline phosphatase, placental-like 2 (ALPPL2), NM_031313, which is incorporated by reference herein), isoform 2 (alkaline phosphatase, placental (ALPP), NM_001632, which is incorporated by reference herein), and isoform 3 (alkaline phosphatase, intestinal (ALPLI), NM_001631, which is incorporated by reference herein), that can also be expressed on cell surfaces via a GPI-anchor. Isoform 1 is 56.25% identical and 72.54% similar (gaps: 4.17%) to ALPL, isoform 2 is 54.96% identical and 71.37% similar (gaps: 2.29%) to ALPL, and isoform 3 is 55.98% identical and 72.11% similar (gaps: 3.04%) to ALPL. The transduction assay described above was repeated with the three isoforms. HEK 293T cells were transfected via calcium phosphate transfection with a plasmid expressing ALPL, isoform 1 of ALPL, isoform 2 of ALPL, isoform 3 of ALPL, an AAVR positive control, or a pCMV6 negative control. […] At 24-hours post-transduction, luciferase activity (RLU) was measured to quantify AAV cellular transduction.

[3] = target: T2, isoform 1 (Alkaline phosphatase, placental-like 2 (ALPPL2)) (Homo sapiens, UniProt P10696); experiment: Transduction assay in HEK 293T cells expressing isoform 1; type: cell-based; conditions: for Luciferase Activity (RLU): Table 30, Isoform 1 transfected cells; for increase in transduction in cells expressing isoform 1: luciferase activity (RLU)
T2 construct: expressed in transfected cells; host or cells: HEK 293T
Description: as §2

[4] = system: brains and tissues (liver, DRG, quadriceps, and heart); experiment: NGS fold enrichment of capsid variants in African green monkeys; type: in vivo, African green monkeys (Chlorocebus sabaeus); conditions: 2E13 vg/kg IV, 14 days
Description: as §1, with “African green” for “marmoset”, “control under the control of a synapsin promoter,” for “control,”, “3-12 years” for “>10 months”, “vg/kg.” for “vg/kg (8.75E12 vg/mL).”, “14-days” for “28-days”, “(liver, DRG,” for “(liver”

brain [5] = experiment: Second cross-species screen, synthetic library passage 3 in C57Bl/6 mice; type: in vivo; conditions: third passage (P3)
Description: There were approximately 500 variants in this synthetic library. This synthetic library was then injected back into both strains of mice (C57Bl/6 and BALB/c; passage 3). RNA was recovered from the mouse brains, RT-PCR amplification was performed, and fold-enrichment relative to wild-type AAV9 was calculated by NGS analysis, which is provided in Table 11.

brain [6] = experiment: NGS fold enrichment of synthetic library (passage 3) in C57Bl/6 mice, first cross-species screen; type: in vivo; conditions: synthetic library passage 3, intravenous, RNA NGS, brain of C57Bl/6 mice, relative to wild-type AAV9
Summary of the method: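 Synthetic capsid library (passage 3) was given intravenously […] to NHPs aged 2-4 years and to BALB/c and C57Bl/6 mice (n=3 each, 6-8 weeks). After about 28 days in vivo, tissue RNA was RT-PCR amplified and NGS-sequenced; values are fold enrichment per variant relative to wild-type AAV9.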

T2 sequence (P10696 20-503): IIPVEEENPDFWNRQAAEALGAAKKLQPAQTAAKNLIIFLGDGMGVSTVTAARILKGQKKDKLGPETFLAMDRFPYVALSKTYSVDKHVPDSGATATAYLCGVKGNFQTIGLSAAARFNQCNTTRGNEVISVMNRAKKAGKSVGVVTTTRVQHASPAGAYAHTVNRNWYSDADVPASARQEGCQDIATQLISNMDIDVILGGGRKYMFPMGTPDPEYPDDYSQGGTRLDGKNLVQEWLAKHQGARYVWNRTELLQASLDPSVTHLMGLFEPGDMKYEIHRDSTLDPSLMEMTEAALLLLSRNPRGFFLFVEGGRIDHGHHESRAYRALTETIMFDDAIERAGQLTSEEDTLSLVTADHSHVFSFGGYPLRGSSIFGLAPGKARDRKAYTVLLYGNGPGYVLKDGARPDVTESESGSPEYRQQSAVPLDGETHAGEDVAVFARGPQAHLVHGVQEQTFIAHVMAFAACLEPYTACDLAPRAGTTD

B1: TTM-001: AAV9 capsid variant comprising SPHSKA (SEQ ID NO: 941) in loop IV (protein)
chain 1: MAADGYLPDWLEDNLSEGIREWWALKPGAPQPKANQQHQDNARGLVLPGYKYLGPGNGLDKGEPVNAADAAALEHDKAYDQQLKAGDNPYLKYNHADAEFQERLKEDTSFGGNLGRAVFQAKKRLLEPLGLVEEAAKTAPGKKRPVEQSPQEPDSSAGIGKSGAQPAKKRLNFGQTGDTESVPDPQPIGEPPAAPSGVGSLTMASGGGAPVADNNEGADGVGSSSGNWHCDSQWLGDRVITTSTRTWALPTYNNHLYKQISNSTSGGSSNDNAYFGYSTPWGYFDFNRFHCHFSPRDWQRLINNNWGFRPKRLNFKLFNIQVKEVTDNNGVKTIANNLTSTVQVFTDSDYQLPYVLGSAHEGCLPPFPADVFMIPQYGYLTLNDGSQAVGRSSFYCLEYFPSQMLRTGNNFQFSYEFENVPFHSSYAHSQSLDRLMNPLIDQYLYYLSKTINGSGSPHSKAQNQQTLKFSVAGPSNMAVQGRNYIPGPSYRQQRVSTTVTQNNNSEFAWPGASSWALNGRNSLMNPGPAMASHKEGEDRFFPLSGSLIFGKQGTGRDNVDADKVMITNEEEIKTTNPVATESYGQVATNHQSAQAQAQTGWVQNQGILPGMVWQDRDVYLQGPIWAKIPHTDGNFHPSPLMGGFGMKHPPPQILIKNTPVPADPPTAFNKDKLNSFITQYSTGQVSVEIEWELQKENSKRWNPEIQYTSNYYKSNNVEFAVNTEGVYSEPRPIGTRYLTRNL
chain 2: GSGSPHSKAQNQQT
expression relative to AAV9 in the heart of marmosets [1]: a significant increase in expression relative to AAV9
fold increase in expression relative to AAV9 in the brain of marmosets [1]: 703.3 fold
Luciferase Activity (RLU) [2]: 3,300 RLU
increase in transduction in cells expressing isoform 3 [2]: did not occur
Luciferase Activity (RLU) [3]: 4,072 RLU
increase in transduction in cells expressing isoform 1 [3]: did not occur
expression relative to AAV9 in the heart of African green monkeys [4]: a significant increase in expression relative to AAV9
fold increase in expression relative to AAV9 in the brain of African green monkeys [4]: 43.5 fold
Fold enrichment over AAV9 in C57Bl/6 (brain [5]): 65.853 fold
Fold enrichment over AAV9 in the brain of Mice (C57Bl/6) (brain [6]): 25.293 fold

B2: TTM-002: AAV9 capsid variant comprising HDSPHK (SEQ ID NO: 2) in loop IV (protein)
chain 1: MAADGYLPDWLEDNLSEGIREWWALKPGAPQPKANQQHQDNARGLVLPGYKYLGPGNGLDKGEPVNAADAAALEHDKAYDQQLKAGDNPYLKYNHADAEFQERLKEDTSFGGNLGRAVFQAKKRLLEPLGLVEEAAKTAPGKKRPVEQSPQEPDSSAGIGKSGAQPAKKRLNFGQTGDTESVPDPQPIGEPPAAPSGVGSLTMASGGGAPVADNNEGADGVGSSSGNWHCDSQWLGDRVITTSTRTWALPTYNNHLYKQISNSTSGGSSNDNAYFGYSTPWGYFDFNRFHCHFSPRDWQRLINNNWGFRPKRLNFKLFNIQVKEVTDNNGVKTIANNLTSTVQVFTDSDYQLPYVLGSAHEGCLPPFPADVFMIPQYGYLTLNDGSQAVGRSSFYCLEYFPSQMLRTGNNFQFSYEFENVPFHSSYAHSQSLDRLMNPLIDQYLYYLSKTINGHDSPHKSGQNQQTLKFSVAGPSNMAVQGRNYIPGPSYRQQRVSTTVTQNNNSEFAWPGASSWALNGRNSLMNPGPAMASHKEGEDRFFPLSGSLIFGKQGTGRDNVDADKVMITNEEEIKTTNPVATESYGQVATNHQSAQAQAQTGWVQNQGILPGMVWQDRDVYLQGPIWAKIPHTDGNFHPSPLMGGFGMKHPPPQILIKNTPVPADPPTAFNKDKLNSFITQYSTGQVSVEIEWELQKENSKRWNPEIQYTSNYYKSNNVEFAVNTEGVYSEPRPIGTRYLTRNL
chain 2: GHDSPHKSGQNQQT
expression relative to AAV9 in the heart of marmosets [1]: a significant increase in expression relative to AAV9
fold increase in expression relative to AAV9 in the brain of marmosets [1]: 366.6 fold
Luciferase Activity (RLU) [2]: 2,074 RLU
increase in transduction in cells expressing isoform 3 [2]: did not occur
Luciferase Activity (RLU) [3]: 1,114 RLU
increase in transduction in cells expressing isoform 1 [3]: did not occur
expression relative to AAV9 in the heart of African green monkeys [4]: a significant increase in expression relative to AAV9
fold increase in expression relative to AAV9 in the brain of African green monkeys [4]: 13.8 fold
Fold enrichment over AAV9 in C57Bl/6 (brain [5]): 51.125 fold
Fold enrichment over AAV9 in the brain of Mice (C57Bl/6) (brain [6]): 63.993 fold
